# Assay results: patent US20210172932A1 (published 2021)
# Biological target: T1, human FcRn (immobilized on nickel-nitrilotriacetic acid-coated biosensors) (human, UniProt P55899 24-297; P61769 21-119)
# T1 construct: also called neonatal Fc receptor
# Test: BLI (Octet RED), FcRn on Ni-NTA biosensor, pH 6.0
row,Kd [nM],Binder
1,290,Pembrolizumab (antibody) chain 1: not shown chain 2: EIVLTQSPATLSLSPGERATLSCRASKGVSTSGYSYLHWYQQKPGQAPRLLIYLASYLESGVPARFSGSGSGTDFTLTISSLEPEDFAVYYCQHSRDLPLTFGGGTKVEIKRTVAAPSVFIFPPSDEQLKSGTASVVCLLNNFYPREAKVQWKVDNALQSGNSQESVTEQDSKDSTYSLSSTLTLSKADYEKHKVYACEVTHQGLSSPVTKSFNRGEC
2,1230,Emicizumab (bispecific antibody) chain 1: DIQMTQSPSSLSASVGDRVTITCKASRNIERQLAWYQQKPGQAPELLIYQASRKESGVPDRFSGSRYGTDFTLTISSLQPEDIATYYCQQYSDPPLTFGGGTKVEIKRTAAAPSVFIFPPSDEQLKSGTASVVCLLNNFYPREAKVQWKVDNALQSGNSQESVTEQDSKDSTYSLSSTLTLSKADYEKHKVYACEVTHQGLSSPVTKSFNRGEC chain 2: QVQLVESGGGLVQPGGSLRLSCAASGFTFSYYDIQWVRQAPGKGLEWVSSISPSGQSTYYRREVKGRFTISRDNSKNTLYLQMNSLRAEDTAVYYCARRTGREYGGGWYFDYWGQGTLVTVSSASTKGPSVFPLAPCSRSTSESTAALGCLVKDYFPEPVTVSWNSGALTSGVHTFPAVLQSSGLYSLSSVVTVPSSSLGTQTYTCNVDHKPSNTKVDKRVESKYGPPCPPCPAPEFLGGPSVFLFPPKPKDTLMISRTPEVTCVVVDVSQEDPEVQFNWYVDGVEVHNAKTKPREEQYNSTYRVVSVLTVLHQDWLNGKEYKCKVSNKGLPSSIEKTISKAKGQPREPQVYTLPPSQKEMTKNQVSLTCLVKGFYPSDIAVEWESNGQPENNYKTTPPVLDSDGSFFLYSKLTVDKSRWQEGNVFSCSVMHEALHNRYTQKSLSLSPEQKLISEEDLNAVGQDTQEVIVVPHSLPFKVVVISAILALVVLTIISLIILIMLWQKKPR chain 3: QVQLVQSGSELKKPGASVKVSCKASGYTFTDNNMDWVRQAPGQGLEWMGDINTRSGGSIYNEEFQDRVIMTVDKSTDTAYMELSSLRSEDTATYHCARRKSYGYYLDEWGEGTLVTVSSASTKGPSVFPLAPCSRSTSESTAALGCLVKDYFPEPVTVSWNSGALTSGVHTFPAVLQSSGLYSLSSVVTVPSSSLGTQTYTCNVDHKPSNTKVDKRVESKYGPPCPPCPAPEFLGGPSVFLFPPKPKDTLMISRTPEVTCVVVDVSQEDPEVQFNWYVDGVEVHNAKTKPREEQYNSTYRVVSVLTVLHQDWLNGKEYKCKVSNKGLPSSIEKTISKAKGQPREPQVYTLPPSQEEMTKNQVSLTCLVKGFYPSDIAVEWESNGQPENNYKTTPPVLDSDGSFFLYSKLTVDKSRWQEGNVFSCSVMHEALHNHYTQESLSLSPEQKLISEEDLNAVGQDTQEVIVVPHSLPFKVVVISAILALVVLTIISLIILIMLWQKKPR
3,610,Vedolizumab (antibody) chain 1: not shown chain 2: DVVMTQSPLSLPVTPGEPASISCRSSQSLAKSYGNTYLSWYLQKPGQSPQLLIYGISNRFSGVPDRFSGSGSGTDFTLKISRVEAEDVGVYYCLQGTHQPYTFGQGTKVEIKRTVAAPSVFIFPPSDEQLKSGTASVVCLLNNFYPREAKVQWKVDNALQSGNSQESVTEQDSKDSTYSLSSTLTLSKADYEKHKVYACEVTHQGLSSPVTKSFNRGEC
4,460,Tocilizumab (antibody) chain 1: not shown chain 2: not shown
